First the molecules themselves.
B1: Myosin-binding protein C, cardiac-type (Mus musculus), O70468 (parent)
chain: MPEPGKKPVSAFNKKPRSAEVTAGSAAVFEAETERSGVMVRWQRDGSDITANDKYGLAAEGKRHTLTVRDASPDDQGSYAVIAGSSKVKFDLKVTEPAPPEKAESEVAPGAPEEVPAPATELEESVSSPEGSVSVTQDGSAAEHQGAPDDPIGLFLMRPQDGEVTVGGSIVFSARVAGASLLKPPVVKWFKGKWVDLSSKVGQHLQLHDSYDRASKVYLFELHITDAQTTSAGGYRCEVSTKDKFDSCNFNLTVHEAIGSGDLDLRSAFRRTSLAGAGRRTSDSHEDAGTPDFSSLLKKRDSFRRDSKLEAPAEEDVWEILRQAPPSEYERIAFQHGVEACHRPLKRLKGMKQDEKKSTAFQKKLEPAYQVNKGHKIRLTVELADPDAEVKWLKNGQEIQMSGSKYIFESVGAKRTLTISQCSLADDAAYQCVVGGEKCSTELFVKEPPVLITRSLEDQLVMVGQRVEFECEVSEEGAQVKWLKDGVELTREETFKYRFKKDGRKHHLIINEATLEDAGHYAVRTSGGQSLAELIVQEKKLEVYQSIADLAVGAKDQAVFKCEVSDENVRGVWLKNGKELVPDNRIKVSHIGRVHKLTIDDVTPADEADYSFVPEGFACNLSAKLHFMEVKIDFVPRQEPPKIHLDCPGSTPDTIVVVTGNKLRLDVPISGDPAPTVVWQKTVTQGKKASAGPHPDAPEDAGADEEWVFDKKLLCETEGRVRVETTKDRSVFTVEGAEKEDEGVYTVTVKNPVGEDQVNLTVKVIDVPDAPAAPKISNVGEDSCTVQWEPPAYDGGQPVLGYILERKKKKSYRWMRLNFDLLRELSHEARRMIEGVAYEMRVYAVNAVGMSRPSPASQPFMPIGPPGEPTHLAVEDVSDTTVSLKWRPPERVGAGGLDGYSVEYCQEGCSEWTPALQGLTERRSMLVKDLPTGARLLFRVRAHNVAGPGGPIVTKEPVTVQEILQRPRLQLPRHLRQTIQKKVGEPVNLLIPFQGKPRPQVTWTKEGQPLAGEEVSIRNSPTDTILFIRAARRTHSGTYQVTVRIENMEDKATLILQIVDKPSPPQDIRIVETWGFNVALEWKPPQDDGNTEIWGYTVQKADKKTMEWFTVLEHYRRTHCVVSELIIGNGYYFRVFSHNMVGSSDKAAATKEPVFIPRPGITYEPPKYKALDFSEAPSFTQPLANRSIIAGYNAILCCAVRGSPKPKISWFKNGLDLGEDARFRMFCKQGVLTLEIRKPCPYDGGVYVCRATNLQGEAQCECRLEVRVPQ

The text below walks through data of IntAct's records for PubMed 22982234.

The first assay covers variants of B1. The following applies: with actc_mouse Actc1, P68033.
Regarding R279A;R280A;T281A, the “effect of a mutation on the interaction” value is “disrupting interaction strength”.

Regarding R304A;R305A, the “effect of a mutation on the interaction” value is reported as “disrupting interaction strength”.

K188A;K191A;K193A: the “effect of a mutation on the interaction” value is “disrupting interaction strength”.

With R279A;R280A, the “effect of a mutation on the interaction” value is “disrupting interaction strength”.

Another assay covers variants of B1. Particulars: with myh6_mouse Myh6, Q02566.
myh6_mouse Myh6, Q02566, sequence (Q02566 whole entry): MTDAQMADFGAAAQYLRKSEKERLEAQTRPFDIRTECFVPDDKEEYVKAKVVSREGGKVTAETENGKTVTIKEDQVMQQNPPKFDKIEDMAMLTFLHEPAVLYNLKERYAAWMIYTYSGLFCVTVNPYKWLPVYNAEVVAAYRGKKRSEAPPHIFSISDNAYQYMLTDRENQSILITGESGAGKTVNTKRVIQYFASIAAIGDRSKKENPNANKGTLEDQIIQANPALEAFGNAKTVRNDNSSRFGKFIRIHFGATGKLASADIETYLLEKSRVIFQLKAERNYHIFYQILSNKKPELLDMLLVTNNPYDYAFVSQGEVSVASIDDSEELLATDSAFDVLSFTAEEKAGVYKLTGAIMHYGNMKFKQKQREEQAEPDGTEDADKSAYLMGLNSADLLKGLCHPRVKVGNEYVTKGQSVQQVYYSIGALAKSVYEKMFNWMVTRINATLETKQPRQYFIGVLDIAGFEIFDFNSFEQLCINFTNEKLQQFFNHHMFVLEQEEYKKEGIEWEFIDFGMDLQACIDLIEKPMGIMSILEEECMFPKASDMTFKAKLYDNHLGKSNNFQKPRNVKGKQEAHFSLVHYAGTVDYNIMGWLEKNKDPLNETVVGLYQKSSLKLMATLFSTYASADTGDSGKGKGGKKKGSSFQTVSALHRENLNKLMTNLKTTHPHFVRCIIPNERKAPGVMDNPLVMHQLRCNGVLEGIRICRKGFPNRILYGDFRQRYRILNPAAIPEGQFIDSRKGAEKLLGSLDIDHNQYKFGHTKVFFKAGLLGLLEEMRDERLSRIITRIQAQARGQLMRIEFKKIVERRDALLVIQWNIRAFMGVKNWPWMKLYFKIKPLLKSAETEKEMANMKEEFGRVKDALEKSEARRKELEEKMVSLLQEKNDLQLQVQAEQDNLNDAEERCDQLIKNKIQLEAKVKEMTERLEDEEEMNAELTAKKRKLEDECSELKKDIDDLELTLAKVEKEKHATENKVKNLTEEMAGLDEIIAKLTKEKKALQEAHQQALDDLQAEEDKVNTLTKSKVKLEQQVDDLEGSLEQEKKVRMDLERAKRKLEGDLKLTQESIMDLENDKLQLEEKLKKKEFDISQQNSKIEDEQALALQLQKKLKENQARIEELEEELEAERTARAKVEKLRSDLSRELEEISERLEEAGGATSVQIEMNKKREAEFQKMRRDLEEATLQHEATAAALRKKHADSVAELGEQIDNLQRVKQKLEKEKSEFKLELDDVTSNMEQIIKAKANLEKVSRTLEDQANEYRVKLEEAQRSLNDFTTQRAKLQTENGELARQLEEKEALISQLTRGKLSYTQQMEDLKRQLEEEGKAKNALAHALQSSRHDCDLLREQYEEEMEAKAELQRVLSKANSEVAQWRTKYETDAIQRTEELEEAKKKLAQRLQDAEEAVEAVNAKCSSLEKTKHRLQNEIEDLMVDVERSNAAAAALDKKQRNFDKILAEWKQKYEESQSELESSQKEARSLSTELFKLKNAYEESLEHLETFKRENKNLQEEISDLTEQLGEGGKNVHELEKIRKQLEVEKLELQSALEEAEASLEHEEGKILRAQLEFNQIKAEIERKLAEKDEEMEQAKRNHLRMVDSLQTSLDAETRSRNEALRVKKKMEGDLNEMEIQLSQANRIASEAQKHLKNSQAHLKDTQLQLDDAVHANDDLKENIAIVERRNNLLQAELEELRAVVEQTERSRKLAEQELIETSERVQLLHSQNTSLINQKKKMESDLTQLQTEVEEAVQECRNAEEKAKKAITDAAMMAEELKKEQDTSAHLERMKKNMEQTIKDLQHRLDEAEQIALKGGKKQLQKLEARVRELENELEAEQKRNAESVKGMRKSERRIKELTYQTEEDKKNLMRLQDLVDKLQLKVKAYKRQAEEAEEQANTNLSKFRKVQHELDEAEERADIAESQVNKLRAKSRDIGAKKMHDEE
Consider R279A;R280A;T281A, for which the “effect of a mutation on the interaction” value is “disrupting interaction strength”.

For K298A;K299A, the “effect of a mutation on the interaction” value is listed as “disrupting interaction strength”.

K298A;K299A;R300A: the “effect of a mutation on the interaction” value is given as “disrupting interaction strength”.

R266A;R270A;R271A: the “effect of a mutation on the interaction” value is “disrupting interaction strength”.
